Numbering of substitutions follows the chain as printed.
T1: Rv2745-S (ClgR, stabilized/soluble form) (Mycobacterium tuberculosis, UniProt P9WMH7 1-112, V111D;A112D)
T1 sequence: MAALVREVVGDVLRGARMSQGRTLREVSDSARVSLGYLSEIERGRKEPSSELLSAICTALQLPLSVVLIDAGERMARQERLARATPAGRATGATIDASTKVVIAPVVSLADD

T2: Rv2745-S L24SR25D (DBL) (Mycobacterium tuberculosis, UniProt P9WMH7 1-112, L24S;R25D;V111D;A112D)
T2 sequence: T1 sequence with L24S, R25D

B1: clpC1 promoter probe (dsDNA)
DNA 1: CGAGCGGCCATCGGTTCGCCGCCAGCGAACGCGGCAAAGTAC
DNA 2: GTACTTTGCCGCGTTCGCTGGCGGCGAACCGATGGCCGCTCG
B2: clpC1 promoter unlabeled competitor (dsDNA)
DNA 1: B1 DNA 1
DNA 2: B1 DNA 2

Assays:
[1] = target: T1, Rv2745-S (ClgR, stabilized/soluble form); experiment: EMSA; conditions: protein: recombinant; tags: NusA fusion and His tag (pET50b), removed with HRV3C protease; chain copies: 2; label: 5' Cy5.5; blunt
Rv2745-S L24SR25D (DBL) = target: T2, Rv2745-S L24SR25D (DBL); experiment: EMSA; conditions: protein: recombinant; chain copies: 2; label: 5' Cy5.5; blunt
[2] = target: T1, Rv2745-S (ClgR, stabilized/soluble form); experiment: competition; conditions: protein: recombinant; tags: NusA fusion and His tag (pET50b), removed with HRV3C protease; chain copies: 2; blunt

Row | Binder | binding result [1] | binding result (Rv2745-S L24SR25D (DBL)) | binding result [2]
1 | B1 | binds | no binding | 
2 | B2 |  |  | binds

From publication PMC2905415, “Characterization of a Clp Protease Gene Regulator and the Reaeration Response in Mycobacterium tuberculosis”
